Measurements taken from the supplement of paper PMC12855868.

B1: library; numbered along this chain (parent)
chain: MAAAGGARLLRAASAVLGGPAGRWLHHAGSRAGSSGLLRNRGPGGSAEASRSLSVSARARSSSEDKITVHFINRDGETLTTKGKVGDSLLDVVVENNLDIDGFGACEGTLACSTCHLIFEDHIYEKLDAITDEENDMLDLAYGLTDRSRLGCQICLTKSMDNMTVRVPETVADARQSIDVGKTS

Variants of: B1
Experiment: scaled log2 fold change in cell abundance, elesclomol vs control (0 = silent mean, 1 = nonsense mean) (scaled log2 ratio); higher = higher viability under elesclomol (loss of FDX1 cuproptosis function)
Settings: glucose 10 mM
Method: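 Deep mutational scan of full-length human FDX1: a pooled saturation-mutagenesis ORF library (every residue 2-184 mutated to all 19 amino acids plus stop, and silent codons where available) was expressed by lentivirus in FDX1-knockout ABC1 (14 days) or HEK293T (11 days) cells grown with elesclomol (ES) or DMSO control. Variant abundance came from ORF sequencing. The log2 fold change (ES vs control, mean of duplicates) was centred on the silent-variant mean (0) and scaled to the nonsense-variant mean (1). Higher values mean greater viability under ES, i.e. loss of FDX1 function in cuproptosis.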

[1] = with ABC1 FDX1 KO, elesclomol 5 nM, 14 days
[2] = with HEK293T FDX1 KO, elesclomol 40 nM, 11 days
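Also: variant abundance is its share of total variant reads in each endpoint sample, from next-generation sequencing of the integrated ORF PCR-amplified out of genomic DNA.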

Variant | scaled log2 fold change [1] | scaled log2 fold change [2]
G22A | 0.412 | –
G22C | -0.919 | –
G22I | 0.314 | 0.699
G22V | 0.245 | –
G22T | -0.511 | -0.29
G22P | 0.294 | –
G22K | 0.385 | 0.488
G22M | 0.793 | –
G22R | -0.188 | –
G22H | 0.331 | 0.022
G22Y | 0.703 | 0.208
G22E | -0.42 | -0.0922
G22F | 0.555 | –
G22L | -0.306 | –
S14Q | -0.469 | –
S14E | 0.366 | 0.442
S14Y | 0.283 | 0.523
S14P | 0.707 | –
S14D | 0.306 | –
S14M | 0.348 | 0.298
S14I | -0.891 | -0.397
S14T | -0.472 | –
S14A | 0.422 | 0.495
S14K | -0.193 | 0.475
S14F | -0.657 | –

Variant | scaled log2 fold change [1] | scaled log2 fold change [2]
S14L | -0.903 | 0.688
S14R | 0.602 | –
S14G | 0.603 | –
S14H | -0.573 | –
S14V | 0.113 | –
S14C | 0.43 | -0.264
S14W | -0.0995 | -0.0707
R23C | 0.413 | 0.458
R23E | 0.00775 | –
R23I | 0.309 | –
R23D | 0.199 | –
V16G | -0.0956 | 0.0318
V16E | -0.716 | –
V16W | -0.405 | –
V16R | -0.0133 | –
V16T | 0.119 | -0.636
V16C | 0.174 | 0.501
V16P | -0.0976 | 0.175
V16K | 0.121 | 0.118
V16M | 0.215 | 0.406
V16S | 0.228 | -0.117
V16D | 0.0655 | -0.0447
V16Y | 0.461 | 0.705
V16A | -0.668 | –
V16F | -0.9 | 0.654

Variant | scaled log2 fold change [1] | scaled log2 fold change [2]
V16L | 0.316 | -0.316
V16N | -0.645 | -0.143
V16Q | 0.575 | –
V16I | -0.31 | –
A21E | -0.0483 | -0.444
A21I | 0.0825 | 0.0632
A21P | 0.0803 | –
A21C | -0.145 | -0.0664
A21G | 0.106 | -0.283
A21R | -0.644 | -0.0217
A21K | -0.827 | –
A21Q | -0.931 | 0.318
A21M | -0.216 | -0.139
A21L | 0.235 | 0.118
A21H | -0.455 | -0.00969
A21F | -0.268 | 0.113
A21T | -0.223 | -0.058
A21D | 0.168 | -0.0523
A21N | -0.1 | -0.618
A21Y | -0.187 | –
A21S | 0.463 | -0.189
A21V | 0.197 | –
L9R | 0.455 | -0.0809
L9Q | -0.0581 | 1.04
L9K | 0.158 | –

Variant | scaled log2 fold change [1] | scaled log2 fold change [2]
L9S | 0.156 | -0.659
L9P | 0.629 | 0.0788
L9T | 0.431 | –
L9N | 0.353 | -0.636
L9M | 0.105 | 0.772
L9Y | 0.485 | -0.192
L9V | 0.286 | -0.433
L9W | 0.434 | 0.233
G19N | -0.0111 | 0.0883
G19P | 0.54 | –
G19V | -0.0119 | 1.01
G19A | -0.167 | -0.0193
G19Q | 0.00839 | -0.000362
G19L | -0.367 | 0.0638
G19F | 0.0719 | 0.185
G19T | 0.117 | 0.837
G19H | 0.674 | –
G19W | 0.277 | -0.266
G19I | 0.0203 | -0.0307
G19K | -0.0528 | -0.256
G19Y | 0.187 | -0.867
G19M | -0.0059 | -0.191
G19D | 0.233 | 0.874
G19E | 0.246 | -0.028
G19S | 0.267 | 0.0205

Variant | scaled log2 fold change [1] | scaled log2 fold change [2]
G19C | -0.0683 | -0.489
G19R | 0.483 | 1.5
L17H | -0.27 | -0.167
L17R | -0.051 | 0.603
L17F | -0.361 | 0.252
L17P | -0.107 | –
L17D | 0.342 | 0.653
L17K | -0.392 | -0.386
L17G | 0.217 | -0.178
L17S | 0.386 | 0.458
L17N | 0.306 | –
L17M | 0.05 | 0.0514
L17T | 0.262 | -0.223
L17A | -0.194 | –
L17C | 0.0553 | 0.966
L17Q | -0.0277 | -0.517
L17V | -0.232 | –
L17W | 0.321 | -0.126
L17E | 0.227 | –
L17Y | -0.147 | 0.613
L17I | -0.552 | -0.833
A13N | 0.0507 | -0.531
A13D | 0.543 | -0.132
A13Y | -0.585 | 0.259
A13S | 0.157 | 0.0322

Variant | scaled log2 fold change [1] | scaled log2 fold change [2]
A13C | 0.224 | 0.158
A13T | 0.0105 | -0.0204
A13G | 0.519 | –
A13I | -0.0121 | 0.147
A13M | -0.148 | 0.232
A13R | -0.131 | 0.251
A13V | 0.347 | –
A13Q | 0.0333 | 0.653
A13E | 0.269 | 0.026
A13L | 0.256 | 0.56
A13K | 0.137 | -0.0857
A13P | 0.188 | –
A13H | 0.0738 | -1.05
A13F | 0.0208 | 1.34
A13W | 0.54 | -0.436
A15K | -0.22 | -0.495
A15H | 0.0941 | -0.215
A15T | 0.322 | -0.179
A15E | 0.311 | -0.231
A15N | -0.0399 | -0.856
A15Q | 0.208 | 0.886
A15M | -0.0208 | 0.445
A15F | -0.0557 | -0.87
A15S | 0.137 | 0.0336
A15C | 0.107 | 0.017

Variant | scaled log2 fold change [1] | scaled log2 fold change [2]
A15P | 0.172 | 0.337
A15Y | -0.822 | –
A15I | -0.367 | -0.0209
A15G | -0.419 | 0.437
A15L | -0.153 | -0.301
A15D | 0.405 | 0.431
A15W | 0.0842 | -0.229
A15V | 0.02 | –
A12R | -0.455 | 0.571
A12H | 0.526 | 0.197
A12P | -0.154 | -0.436
A12Y | 0.376 | 0.577
A12T | -0.00479 | -0.247
A12Q | 0.144 | 0.91
A12M | -0.178 | -0.222
A12V | 0.373 | –
A12E | 0.118 | 0.751
A12G | 0.259 | -0.297
A12F | 0.00609 | -0.148
A12S | 0.0823 | 1.03
A12K | 0.0242 | -0.213
A12W | 0.171 | –
A12C | 0.0882 | 0.2
A12D | 0.231 | 0.265
A12N | -0.0628 | 0.996

Variant | scaled log2 fold change [1] | scaled log2 fold change [2]
A12I | 0.306 | -0.67
A12L | 0.128 | -0.0278
G18R | 0.241 | -0.618
G18Q | -0.43 | 0.977
G18C | 0.14 | 0.923
G18M | 0.0948 | 0.156
G18L | -0.655 | 0.123
G18D | -0.233 | 0.58
G18K | 0.322 | 0.179
G18E | -0.165 | -0.152
G18Y | 0.0736 | 0.324
G18T | 0.225 | 0.0755
G18V | 0.494 | -0.0846
G18I | 0.0859 | -0.0341
G18H | 0.0847 | -0.242
G18F | 0.00932 | 0.79
G18W | -0.00826 | -0.224
G18P | 0.0386 | –
G18S | 0.392 | 0.921
G18N | 0.408 | 0.649
G18A | -0.164 | 0.946
L10M | 0.337 | 0.282
L10K | -0.11 | -0.14
L10G | 0.705 | –
L10R | 0.663 | –

Variant | scaled log2 fold change [1] | scaled log2 fold change [2]
L10C | -0.592 | 0.0724
L10E | 0.307 | -0.18
L10H | 0.222 | -0.209
L10S | 0.48 | 1.51
L10D | 0.404 | 0.0467
L10Q | 0.168 | 0.352
L10I | -0.165 | 0.0157
L10F | -0.0904 | -0.0054
L10T | 0.0611 | –
L10W | -0.304 | 0.734
L10V | 0.189 | -0.208
L10N | 0.128 | -0.352
L10Y | 0.409 | 0.302
L10P | -0.379 | –
R11W | 0.0433 | 0.0594
R11I | 0.175 | -0.673
R11C | 0.0344 | -0.198
R11T | 0.0343 | -0.658
R11D | 0.509 | –
R11P | 0.346 | –
R11V | 0.177 | -0.49
R11Q | 0.24 | 0.0461
R11E | -0.0252 | -0.275
R11N | 0.137 | 0.131
R11M | -0.24 | 0.88

Variant | scaled log2 fold change [1] | scaled log2 fold change [2]
R11G | 0.36 | -0.443
R11Y | 0.189 | 0.793
R11H | 0.0541 | -0.696
R11F | 0.139 | -0.474
R11A | 0.289 | -0.22
R11S | 0.406 | -0.404
R11K | 0.0892 | 1.03
R11L | 0.0826 | 0.444
P20I | 0.419 | 0.171
P20K | 0.251 | –
P20C | 0.163 | -0.287
P20N | -0.129 | –
P20A | -0.601 | 0.0404
P20L | 0.585 | -0.772
P20H | -0.216 | 0.0304
P20Y | 0.0978 | 0.987
P20T | 0.221 | –
P20Q | -0.5 | 1.13
P20G | 0.37 | –
P20E | 0.162 | 1.08
P20D | -0.0903 | –
P20M | -0.56 | –
P20F | -0.201 | –
P20W | -0.19 | -0.657
P20S | -0.324 | –
